B1: CPEB3 Ribozyme (parent)
chain: GGGGGCCACAGCAGAAGCGUUCACGUCGCGGCCCCUGUCAGAUUCUGGUGAAUCUGCGAAUUCUGCUGU

Variants of: B1
Assay: self-cleavage, relative activity (ratio to wild type); higher = more cleavage; co-transcriptional

Variant | self-cleavage
UGGGGCCACAGCAGAAGCGUUCACGUCGCGGCCCCUGUCAGAUUCUGGUGAAUCUGCUAAUUCUGCUGU [G1U G58U] | 0.137
UGGGGCCACAGCAGAAGCGUUCACGUCGCGGCCCCUGUCAGAUUCUGGUGAAUCUGCCAAUUCUGCUGU [G1U G58C] | 0.128
UGGGGCCACAGCAGAAGCGUUCACGUCGCGGCCCCUGUCAGAUUCUGGUGAAUCUGCGAAUUCUCCUGU [G1U G65C] | 0.0555
UGGGGCCACAGCAGAAGCGUUCACGUCGCGGCCCCUGUCAGAUUCUGGUGAAUCUGCGAAUUCUACUGU [G1U G65A] | 0.0898
UGGGGCCACAGCAGAAGCGUUCACGUCGCGGCCCCUGUCAGAUUCUGGUGAAUCUGCGAAUUCUUCUGU [G1U G65U] | 0.0644
UGGGGCCACAGCAGAAGCGUUCACGUCGCGCCCCCUGUCAGAUUCUGGUGAAUCUGCGAAUUCUGCUGU [G1U G31C] | 0.0835
UGGGGCCACAGCAGAAGCGUUCACGUCGCGACCCCUGUCAGAUUCUGGUGAAUCUGCGAAUUCUGCUGU [G1U G31A] | 0.0918
UGGGGCCACAGCAGAAGCGUUCACGUCGCGUCCCCUGUCAGAUUCUGGUGAAUCUGCGAAUUCUGCUGU [G1U G31U] | 0.0933
UGGGGCCACAGCAGAAGCGUUCACGUCGCGGCCCCUGUCAGAUUCUGGUGAAUCUGCGAAUUCAGCUGU [G1U U64A] | 0.0494
UGGGGCCACAGCAGAAGCGUUCACGUCGCGGCCCCUGUCAGAUUCUGGUGAAUCUGCGAAUUCGGCUGU [G1U U64G] | 0.117
UGGGGCCACAGCAGAAGCGUUCACGUCGCGGCCCCUGUCAGAUUCUGGUGAAUCUGCGAAUUCCGCUGU [G1U U64C] | 0.0613
UGGGGCCACAGCAGAAGCGUUCACGUCCCGGCCCCUGUCAGAUUCUGGUGAAUCUGCGAAUUCUGCUGU [G1U G28C] | 0.0671
UGGGGCCACAGCAGAAGCGUUCACGUCACGGCCCCUGUCAGAUUCUGGUGAAUCUGCGAAUUCUGCUGU [G1U G28A] | 0.0369
GAGGGCCACAGCAGAAGCGUUCACGUCGCGGCCCCUGUCAGAUUCUGGUGAAUCUGCGAAUUCUGCUGU [G2A] | 0.216
UGGGGCCACAGCAGAAGCGUUCACGUCGCGGCCCCUAUCAGAUUCUGGUGAAUCUGCGAAUUCUGCUGU [G1U G37A] | 0.0613
UGGGGCCACAGCAGAAGCGUUCACGUCGCGGCCCCUGUCAGAGUCUGGUGAAUCUGCGAAUUCUGCUGU [G1U U43G] | 0.113
UGGGGCCACAGCAGAAGCGUUCACGUCGCGGCCCCUGUCAGAAUCUGGUGAAUCUGCGAAUUCUGCUGU [G1U U43A] | 0.0877
UGGGGCCACAGCAGAAGCGUUCACGUCGCGGCCCCUGUCAGACUCUGGUGAAUCUGCGAAUUCUGCUGU [G1U U43C] | 0.127
UGGGGCCACAGCAGAAGCGUUCACGUCGCGGCCCCUGUCAGAUUCUGGUCAAUCUGCGAAUUCUGCUGU [G1U G50C] | 0.0733
UGGGGCCACAGCAGAAGCGUUCACGUCGCGGCCCCUGUCAGAUUCUGGUUAAUCUGCGAAUUCUGCUGU [G1U G50U] | 0.056
GAGGGCCACAGCCGAAGCGUUCACGUCGCGGCCCCUGUCAGAUUCUGGUGAAUCUGCGAAUUCUGCUGU [G2A A13C] | 0.109
GAGGGCCACAGCGGAAGCGUUCACGUCGCGGCCCCUGUCAGAUUCUGGUGAAUCUGCGAAUUCUGCUGU [G2A A13G] | 0.129
UGGGGCCACAGCAGAAGCGUUCACGUCGCGGCCCCGGUCAGAUUCUGGUGAAUCUGCGAAUUCUGCUGU [G1U U36G] | 0.0723
UGGGGCCACAGCAGAAGCGUUCACGUCGCGGCCCCCGUCAGAUUCUGGUGAAUCUGCGAAUUCUGCUGU [G1U U36C] | 0.102
GAGGGCCACCGCAGAAGCGUUCACGUCGCGGCCCCUGUCAGAUUCUGGUGAAUCUGCGAAUUCUGCUGU [G2A A10C] | 0.259
GAGGGCCACGGCAGAAGCGUUCACGUCGCGGCCCCUGUCAGAUUCUGGUGAAUCUGCGAAUUCUGCUGU [G2A A10G] | 0.201

Variant | self-cleavage
UGGGGCCACAGCAGAAGCGUUCACGUCGCGGCCCCUGUCAGAUUCUGGUGAAUCUGCGAAAUCUGCUGU [G1U U61A] | 0.0989
UGGGGCCACAGCAGAAGCGUUCACGUCGCGGCCCCUGUCAGAUUCUGGUGAAUCUGCGAAGUCUGCUGU [G1U U61G] | 0.208
UGGGGCCACAGCAGAAGCGUUCACGUCGCGGCCCCUGUCAGAUUCUGGUGAAUCUGCGAAUCCUGCUGU [G1U U62C] | 0.0771
UGGGGCCACAGCAGAAGCGUUCACGUCGCGGCCCCUGUCAGAUUCUGGUGAAUCUGCGAAUACUGCUGU [G1U U62A] | 0.137
UGGGGCCACAGCAGAAGCGUUCACGUCGCGGCCCCUGUCAGAUUCUGGUGAAUCUGCGAAUGCUGCUGU [G1U U62G] | 0.0907
UGGGGCCACAGCAGAAGCAUUCACGUCGCGGCCCCUGUCAGAUUCUGGUGAAUCUGCGAAUUCUGCUGU [G1U G19A] | 0.0502
UGGGGCCACAGCAGAAGCGUGCACGUCGCGGCCCCUGUCAGAUUCUGGUGAAUCUGCGAAUUCUGCUGU [G1U U21G] | 0.0804
UGGGGCCACAGCAGAAGCGUCCACGUCGCGGCCCCUGUCAGAUUCUGGUGAAUCUGCGAAUUCUGCUGU [G1U U21C] | 0.119
UGGGGCCACAGCAGAAGCGUUCACGUCGCGGCCCCUGUCAGAUCCUGGUGAAUCUGCGAAUUCUGCUGU [G1U U44C] | 0.106
UGGGGCCACAGCAGAAGCGUUCACGUCGCGGCCCCUGUCAGAUACUGGUGAAUCUGCGAAUUCUGCUGU [G1U U44A] | 0.0951
UGGGGCCACAGCAGAAGCGUUCACGUCGCGGCCCCUGUCAGAUGCUGGUGAAUCUGCGAAUUCUGCUGU [G1U U44G] | 0.127
UGGGGCCACAGCAGAAGCGUUCACGUCGCGGCCCCUGUCAGAUUCUGUUGAAUCUGCGAAUUCUGCUGU [G1U G48U] | 0.079
UGGGGCCACAGCAGAAGCGUUCACGUCGCGGCCCCUGUCAGAUUCUGCUGAAUCUGCGAAUUCUGCUGU [G1U G48C] | 0.0782
UGGGGCCACAGCAGAAGCGUUCACGUCGCGGCCCCUGUCAGAUUCUGAUGAAUCUGCGAAUUCUGCUGU [G1U G48A] | 0.192
UGGGGCCACAGCAGAAGCGUUCACGUCGCGGCCCCUGUCAGAUUCUAGUGAAUCUGCGAAUUCUGCUGU [G1U G47A] | 0.117
UGGGGCCACAGCAGAAGCGUUCACGUCGCGGCCCCUGUCAGAUUCUUGUGAAUCUGCGAAUUCUGCUGU [G1U G47U] | 0.14
UGGGGCCACAGCAGAAGCGUUCACGUCGCGGCCCCUGUCAGAUUCUGGUGAAUCUGCGAAUUCUGCUGG [G1U U69G] | 0.265
UGGGGCCACAGCAGAAGCGUUCACGUCGCGGCCCCUGUCAGAUUCUGGUGAAUCUGCGAAUUCUGCUGA [G1U U69A] | 0.194
UGGGGCCACAGCAGAAGCGUUCACGUCGCGGCCCCUGUCAGAUUCGGGUGAAUCUGCGAAUUCUGCUGU [G1U U46G] | 0.0728
UGGGGCCACAGCAGAAGCGUUCACGUCGCGGCCCCUGUCAGAUUCAGGUGAAUCUGCGAAUUCUGCUGU [G1U U46A] | 0.123
GAGGGCCUCAGCAGAAGCGUUCACGUCGCGGCCCCUGUCAGAUUCUGGUGAAUCUGCGAAUUCUGCUGU [G2A A8U] | 0.199
GAGGGCCGCAGCAGAAGCGUUCACGUCGCGGCCCCUGUCAGAUUCUGGUGAAUCUGCGAAUUCUGCUGU [G2A A8G] | 0.105
GAGGGCCACAGCAGAAGCGUUCCCGUCGCGGCCCCUGUCAGAUUCUGGUGAAUCUGCGAAUUCUGCUGU [G2A A23C] | 0.111
UGGGGCCACAGCAGAAGCGUUCACGUCGCGGCCCCUGUCAAAUUCUGGUGAAUCUGCGAAUUCUGCUGU [G1U G41A] | 0.123
UGGGGCCACAGCAGAAGCGUUCACGUCGCGGCCCCUGUCACAUUCUGGUGAAUCUGCGAAUUCUGCUGU [G1U G41C] | 0.036
UGGGGCCACAGCAGAAGCGUUCACGUCGCGGCCCCUGUCAUAUUCUGGUGAAUCUGCGAAUUCUGCUGU [G1U G41U] | 0.116

Variant | self-cleavage
UGGGGCCACAGCAGAAGCGAUCACGUCGCGGCCCCUGUCAGAUUCUGGUGAAUCUGCGAAUUCUGCUGU [G1U U20A] | 0.042
UGGGGCCACAGCAGAAGCGUUCACGUCGCGGCCCCUGUCAGAUUCUGGUGAAUCUGCGAAUUCUGCUCU [G1U G68C] | 0.0929
UGGGGCCACAGCAGAAGCGUUCACGUCGCGGCCCCUGUCAGAUUCUGGUGAAUCUGCGAAUUCUGCUUU [G1U G68U] | 0.173
UGGGGCCACAGCAGAAGCGUUCACGUCGCGGCCCCUGUCAGAUUCUGGUGAAUCUGCGAAUUCUGCUAU [G1U G68A] | 0.129
GAGGGCCACAGCAGCAGCGUUCACGUCGCGGCCCCUGUCAGAUUCUGGUGAAUCUGCGAAUUCUGCUGU [G2A A15C] | 0.0708
GAGGGCCACAGCAGUAGCGUUCACGUCGCGGCCCCUGUCAGAUUCUGGUGAAUCUGCGAAUUCUGCUGU [G2A A15U] | 0.0881
UGGGGCCACAGCAGAAGCGUUCACGUCGCGGCCCCUGUCAGAUUCUGGCGAAUCUGCGAAUUCUGCUGU [G1U U49C] | 0.0511
UGGGGCCACAGCAGAAGCGUUCACGUCGCGGCCCCUGUCAGAUUCUGGGGAAUCUGCGAAUUCUGCUGU [G1U U49G] | 0.152
UGGGGCCACAGCAGAAGCGUUCACGUCGCGGCCCCUGUCAGAUUCUGGAGAAUCUGCGAAUUCUGCUGU [G1U U49A] | 0.124
UGGGGCCACAGCAGAAGCGUUCACGUCGCGGCCCCUGUCAGAUUCUGGUGAAUCUUCGAAUUCUGCUGU [G1U G56U] | 0.108
UGGGGCCACAGCAGAAGCGUUCACGUCGCGGCCCCUGUCAGAUUCUGGUGAAUCUCCGAAUUCUGCUGU [G1U G56C] | 0.105
GAGGGCCACAGCAGAUGCGUUCACGUCGCGGCCCCUGUCAGAUUCUGGUGAAUCUGCGAAUUCUGCUGU [G2A A16U] | 0.1
UGGGGCCACAGCAGAAGCGUUCACGUCGCGGCCCCUGUCAGAUUCUGGUGAAUCGGCGAAUUCUGCUGU [G1U U55G] | 0.118
UGGGGCCACAGCAGAAGCGUUCACGUCGCGGCCCCUGUCAGAUUCUGGUGAAUCAGCGAAUUCUGCUGU [G1U U55A] | 0.109
UGGGGCCACAGCAGAAGCGUUCACGUCGCGGCCCCUGUCAGAUUCUGGUGAAUCCGCGAAUUCUGCUGU [G1U U55C] | 0.0608
UGGGGCCACAGCAGAAUCGUUCACGUCGCGGCCCCUGUCAGAUUCUGGUGAAUCUGCGAAUUCUGCUGU [G1U G17U] | 0.0803
UGGGGCCACAGCAGAAGCGUUCACGUCGCUGCCCCUGUCAGAUUCUGGUGAAUCUGCGAAUUCUGCUGU [G1U G30U] | 0.0366
UGGGGCCACAGCAGAAGCGUUCACGUCGCCGCCCCUGUCAGAUUCUGGUGAAUCUGCGAAUUCUGCUGU [G1U G30C] | 0.0755
UGGGGCCACAGCAGAAGCGUUCACGUCGCGGCCCCUGGCAGAUUCUGGUGAAUCUGCGAAUUCUGCUGU [G1U U38G] | 0.0202
UGGGGCCACAGCAGAAGCGUUCACGUCGCGGCCCCUGCCAGAUUCUGGUGAAUCUGCGAAUUCUGCUGU [G1U U38C] | 0.0816
UGGGGCCACAGCAGAAGCGUUCACGUCGCGGCCCCUGUCAGAUUCUGGUGAAGCUGCGAAUUCUGCUGU [G1U U53G] | 0.101
UGGGGCCACAGCAGAAGCGUUCACGUCGCGGCCCCUGUCAGAUUCUGGUGAAACUGCGAAUUCUGCUGU [G1U U53A] | 0.0914
UGGGGCCACAGCAGAAGCGUUCACGCCGCGGCCCCUGUCAGAUUCUGGUGAAUCUGCGAAUUCUGCUGU [G1U U26C] | 0.0437
UGGGGCCACAGCAGAAGCGUUCACGUCGCGGCCCCUGUCAGAUUCUGGUGAAUCUGCGAAUUCUGCGGU [G1U U67G] | 0.204
UGGGGCCACAGCAGAAGCGUUCACGUCGCGGCCCCUGUCAGAUUCUGGUGAAUCUGCGAAUUCUGCAGU [G1U U67A] | 0.167
UGGGGCCACAGCAGAAGCGUUCACGUCGCGGCCCCUGUCAGAUUCUGGUGAAUCUGCGAAUUCUGCCGU [G1U U67C] | 0.0935

Reference: the RNAGym collection of RNA variant scans (doi:10.7554/elife.80360)
